Test results: the supplement of paper PMC9112550, “Optimization of the antimicrobial peptide Bac7 by deep mutational scanning” (BMC Biology, 2022)

These sequences were tested on Escherichia coli TOP10 (assay: shrunken log2 fold change of peptide-encoding DNA abundance (4.5 h post-induction vs induction); higher = less antimicrobial activity (less host growth inhibition)). Details: time post-induction: 4.5 h; library: site-saturation at positions 5, 18, 19, 20.
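Also: peptides expressed intracellularly from a pBAD plasmid library in pooled LB shake-flask culture, induced with 0.3% L-arabinose, DNA abundance read by NGS, three biological replicates, DESeq2 with apeglm shrinkage.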

Row | Sequence | shrunken log2 fold change
1 | RRIRRRPPRLPRPRPRPTPWPRP | 0.841
2 | RRIRHRPPRLPRPRPRPSIIPRP | -0.237
3 | RRIRYRPPRLPRPRPRPSCDPRP | -0.74
4 | RRIRKRPPRLPRPRPRPTRAPRP | 1.2
5 | RRIRMRPPRLPRPRPRPNFFPRP | 0.128
6 | RRIRNRPPRLPRPRPRPQPEPRP | 0.0878
7 | RRIRRRPPRLPRPRPRPQLGPRP | 0.0467
8 | RRIRSRPPRLPRPRPRPNPGPRP | -0.17
9 | RRIRARPPRLPRPRPRPGMYPRP | -0.111
10 | RRIRIRPPRLPRPRPRPRMGPRP | -0.192
11 | RRIRHRPPRLPRPRPRPYNKPRP | -0.681
12 | RRIRCRPPRLPRPRPRPLITPRP | -0.125
13 | RRIRTRPPRLPRPRPRPPCNPRP | -0.0091
14 | RRIRLRPPRLPRPRPRPHFWPRP | 0.144
15 | RRIRYRPPRLPRPRPRPHCSPRP | -0.239
16 | RRIRNRPPRLPRPRPRPRVDPRP | 0.0415
17 | RRIRARPPRLPRPRPRPYWFPRP | -0.775
18 | RRIRHRPPRLPRPRPRPGDAPRP | 0.0297
19 | RRIRYRPPRLPRPRPRPKSMPRP | -0.584
20 | RRIRSRPPRLPRPRPRPGIWPRP | 0.123
21 | RRIRHRPPRLPRPRPRPMKLPRP | -0.254
22 | RRIRWRPPRLPRPRPRPYPNPRP | -0.58
23 | RRIRARPPRLPRPRPRPLSRPRP | 0.203
24 | RRIRKRPPRLPRPRPRPENMPRP | 0.11
25 | RRIRSRPPRLPRPRPRPPKKPRP | 0.282

Row | Sequence | shrunken log2 fold change
26 | RRIRLRPPRLPRPRPRPAGQPRP | -0.0451
27 | RRIRGRPPRLPRPRPRPNWEPRP | 0.21
28 | RRIRERPPRLPRPRPRPRCPPRP | 0.00202
29 | RRIRYRPPRLPRPRPRPDNQPRP | -0.644
30 | RRIRQRPPRLPRPRPRPQKTPRP | -0.064
31 | RRIRFRPPRLPRPRPRPDRGPRP | 0.0145
32 | RRIRMRPPRLPRPRPRPTALPRP | 0.33
33 | RRIRCRPPRLPRPRPRPQLVPRP | 0.569
34 | RRIRWRPPRLPRPRPRPFITPRP | -0.167
35 | RRIRFRPPRLPRPRPRPVPFPRP | -0.102
36 | RRIRARPPRLPRPRPRPAPRPRP | 1.02
37 | RRIRPRPPRLPRPRPRPTQGPRP | 0.753
38 | RRIRVRPPRLPRPRPRPSHDPRP | -0.159
39 | RRIRMRPPRLPRPRPRPDGIPRP | 1.33
40 | RRIRLRPPRLPRPRPRPGVVPRP | 0.27
41 | RRIRDRPPRLPRPRPRPKVAPRP | 0.458
42 | RRIRARPPRLPRPRPRPQTPPRP | 0.456
43 | RRIRTRPPRLPRPRPRPFAYPRP | -0.136
44 | RRIRVRPPRLPRPRPRPSEVPRP | -0.138
45 | RRIRWRPPRLPRPRPRPDVPPRP | -0.177
46 | RRIRARPPRLPRPRPRPAELPRP | 0.426
47 | RRIRTRPPRLPRPRPRPLIWPRP | 0.361
48 | RRIRERPPRLPRPRPRPGCVPRP | 0.118
49 | RRIRCRPPRLPRPRPRPFAAPRP | 0.308
50 | RRIRIRPPRLPRPRPRPCRLPRP | -0.468

Row | Sequence | shrunken log2 fold change
51 | RRIRRRPPRLPRPRPRPWRDPRP | -0.0485
52 | RRIRYRPPRLPRPRPRPCQGPRP | -0.0126
53 | RRIRYRPPRLPRPRPRPGMRPRP | 0.561
54 | RRIRARPPRLPRPRPRPRWHPRP | 0.323
55 | RRIRNRPPRLPRPRPRPTLVPRP | -0.0435
56 | RRIRMRPPRLPRPRPRPPALPRP | 1.13
57 | RRIRLRPPRLPRPRPRPNMTPRP | -0.0555
58 | RRIRVRPPRLPRPRPRPWGGPRP | 0.307
59 | RRIRRRPPRLPRPRPRPNYWPRP | -0.19
60 | RRIRYRPPRLPRPRPRPWIEPRP | -0.866
61 | RRIRIRPPRLPRPRPRPDWHPRP | -0.882
62 | RRIRYRPPRLPRPRPRPRRSPRP | -0.0446
63 | RRIRARPPRLPRPRPRPECQPRP | 0.333
64 | RRIRDRPPRLPRPRPRPSWNPRP | -0.365
65 | RRIRKRPPRLPRPRPRPIWRPRP | 0.132
66 | RRIRMRPPRLPRPRPRPAMGPRP | 0.867
67 | RRIRHRPPRLPRPRPRPLTFPRP | 0.01
68 | RRIRGRPPRLPRPRPRPWNGPRP | 0.0616
69 | RRIRMRPPRLPRPRPRPEHTPRP | 2.63
70 | RRIRKRPPRLPRPRPRPFYWPRP | 0.144
71 | RRIRMRPPRLPRPRPRPDIPPRP | -0.0804
72 | RRIRTRPPRLPRPRPRPCFGPRP | 0.000833
73 | RRIRLRPPRLPRPRPRPFWTPRP | 0.0168
74 | RRIRVRPPRLPRPRPRPKSCPRP | -0.113
75 | RRIRMRPPRLPRPRPRPKIFPRP | 0.0739

Row | Sequence | shrunken log2 fold change
76 | RRIRFRPPRLPRPRPRPHMFPRP | -0.21
77 | RRIRSRPPRLPRPRPRPANAPRP | 0.438
78 | RRIRNRPPRLPRPRPRPHSLPRP | -0.117
79 | RRIRMRPPRLPRPRPRPYCRPRP | -0.0603
80 | RRIRPRPPRLPRPRPRPHNKPRP | -0.508
81 | RRIRTRPPRLPRPRPRPAQGPRP | 0.228
82 | RRIRQRPPRLPRPRPRPDPMPRP | -0.0539
83 | RRIRCRPPRLPRPRPRPWNQPRP | -0.516
84 | RRIRPRPPRLPRPRPRPWLLPRP | -0.111
85 | RRIRARPPRLPRPRPRPKGKPRP | 1.12
86 | RRIRCRPPRLPRPRPRPAHFPRP | 0.147
87 | RRIRTRPPRLPRPRPRPSSEPRP | -0.0162
88 | RRIRSRPPRLPRPRPRPCEFPRP | -0.227
89 | RRIRWRPPRLPRPRPRPKPDPRP | 0.115
90 | RRIRSRPPRLPRPRPRPCMTPRP | -0.102
91 | RRIRARPPRLPRPRPRPKSSPRP | 0.188
92 | RRIRYRPPRLPRPRPRPRMYPRP | -0.627
93 | RRIRKRPPRLPRPRPRPKQSPRP | 0.525
94 | RRIRGRPPRLPRPRPRPYKAPRP | -0.354
95 | RRIRTRPPRLPRPRPRPAFTPRP | 0.0137
96 | RRIRTRPPRLPRPRPRPAKSPRP | -0.055
97 | RRIRWRPPRLPRPRPRPSVWPRP | 0.218
98 | RRIRRRPPRLPRPRPRPARTPRP | 0.35
99 | RRIRYRPPRLPRPRPRPIPWPRP | -0.545
100 | RRIRQRPPRLPRPRPRPILYPRP | 0.0724

Row | Sequence | shrunken log2 fold change
101 | RRIRYRPPRLPRPRPRPCNLPRP | -0.958
102 | RRIRTRPPRLPRPRPRPTQNPRP | 0.385
103 | RRIRARPPRLPRPRPRPQRVPRP | -0.188
104 | RRIRQRPPRLPRPRPRPSHMPRP | 0.109
105 | RRIRIRPPRLPRPRPRPTTLPRP | -0.506
106 | RRIRKRPPRLPRPRPRPFQDPRP | 0.118
107 | RRIRTRPPRLPRPRPRPSLFPRP | -0.248
108 | RRIRPRPPRLPRPRPRPTSFPRP | 0.0509
109 | RRIRGRPPRLPRPRPRPAKGPRP | 0.0624
110 | RRIRMRPPRLPRPRPRPRVDPRP | 0.95
111 | RRIRTRPPRLPRPRPRPDSCPRP | -0.311
112 | RRIRWRPPRLPRPRPRPKPLPRP | 0.375
113 | RRIRKRPPRLPRPRPRPCTIPRP | -0.204
114 | RRIRERPPRLPRPRPRPNDQPRP | 0.0572
115 | RRIRERPPRLPRPRPRPAGYPRP | 0.0991
116 | RRIRFRPPRLPRPRPRPNFHPRP | -0.218
117 | RRIRPRPPRLPRPRPRPRGVPRP | 0.347
118 | RRIRDRPPRLPRPRPRPEITPRP | 0.0482
119 | RRIRLRPPRLPRPRPRPEFTPRP | -0.0622
120 | RRIRWRPPRLPRPRPRPRGAPRP | 0.586
121 | RRIRARPPRLPRPRPRPFRVPRP | -0.19
122 | RRIRKRPPRLPRPRPRPEMIPRP | 0.0131
123 | RRIRWRPPRLPRPRPRPHFPPRP | 0.064
124 | RRIRKRPPRLPRPRPRPVGGPRP | 0.544
125 | RRIRTRPPRLPRPRPRPFIRPRP | 0.00496

Row | Sequence | shrunken log2 fold change
126 | RRIRVRPPRLPRPRPRPSDRPRP | 0.194
127 | RRIRLRPPRLPRPRPRPVPQPRP | 0.238
128 | RRIRPRPPRLPRPRPRPVWLPRP | 0.577
129 | RRIRKRPPRLPRPRPRPINSPRP | -0.395
130 | RRIRDRPPRLPRPRPRPLYVPRP | -0.17
131 | RRIRCRPPRLPRPRPRPYVKPRP | -0.647
132 | RRIRTRPPRLPRPRPRPGHHPRP | -0.27
133 | RRIRGRPPRLPRPRPRPFGHPRP | -0.164
134 | RRIRWRPPRLPRPRPRPCVIPRP | -0.059
135 | RRIRTRPPRLPRPRPRPLREPRP | 0.318
136 | RRIRHRPPRLPRPRPRPIMMPRP | 0.013
137 | RRIRARPPRLPRPRPRPRVEPRP | 0.187
138 | RRIRERPPRLPRPRPRPSTEPRP | 0.0386
139 | RRIRARPPRLPRPRPRPCSMPRP | 0.00269
140 | RRIRERPPRLPRPRPRPKDLPRP | 0.167
141 | RRIRMRPPRLPRPRPRPFGVPRP | 0.0231
142 | RRIRERPPRLPRPRPRPTKRPRP | -0.176
143 | RRIRQRPPRLPRPRPRPYMMPRP | 0.00408
144 | RRIRKRPPRLPRPRPRPKEMPRP | 0.682
145 | RRIRWRPPRLPRPRPRPLKYPRP | -0.384
146 | RRIRWRPPRLPRPRPRPKWNPRP | -0.095
147 | RRIRFRPPRLPRPRPRPLFGPRP | 0.0395
148 | RRIRQRPPRLPRPRPRPGPNPRP | -0.0457
149 | RRIRERPPRLPRPRPRPYAGPRP | -0.000921
150 | RRIRIRPPRLPRPRPRPKECPRP | 0.00902
